Experimental data published in patent US20190218553, “VON WILLEBRAND FACTOR (VWF)-TARGETING AGENTS AND METHODS OF USING THE SAME” (DUKE UNIVERSITY, published 2019).

Target: von Willebrand factor (VWF) (Homo sapiens, UniProt P04275 P04275:764-2813)
Experiment: filter; Bmax 74%; 2 mM CaCl2, 37 C
Settings: tags: factor VIII free human purified VWF, Haematologic Technologies Inc; label: 5'-32P
Protocol: Affinity constants (Kd values) were determined using double-filter nitrocellulose filter binding assays (Rusconi et al, Thromb. Haemost. $4:841-848 (2000)). All binding studies were performed in binding buffer F (20 mM HEPES, pH 7.4, 150 mM NaCl, 2 mM CaCl₂, and 0.01% BSA) at 37° C. Human purified VWF (factor VIII free) was purchased from Haematologic Technologies Inc. (Essex Junction, Vt.) and used in the double-filter nitrocellulose filter binding assay to determine the Kd of the aptamers. Briefly, RNA were end-labeled at the 5′ end with T4 polynucleotide kinase (New England Biolabs, Beverly, Mass.) and [γ³²P] ATP (Amersham Pharmacia Biotech, Piscataway, N.J.) (Fitzwater and Polisky, Methods Enzymol. 267:275-301 (1996)). End-labeled RNA was diluted in binding buffer F, heat denatured at 65° C. for 5 minutes, and subsequently equilibrated at 37° C. Direct binding was performed by incubating trace ³²P-RNA with varying concentrations of VWF protein in binding buffer F at 37° C. for 5 min. The fraction of the nucleic acid-protein complex which bound to the nitrocellulose membrane was quantified with a phosphorimager (Molecular Dynamics, Sunnyvale, Calif.). Non-specific binding of the radiolabeled nucleic acid was subtracted out of the binding such that only specific binding remained (Wong and Lohman, Proc. Natl. Acad. Sci. USA 90:5428-5432 (1993)).

**Q.** Which Kd does the source give for ACGAACUGCCCUCGAUCGACGCACAGACGUACACG (ssRNA, 2'-F C9,C10,C11,C20,G21,C22; rest 2'-OMe; 3' idT) [T84 vrt7] here?
**A.** Its Kd is 0.182 µM.
